Results published in publication PMC6200327 (The Biochemical journal, 2018).

Target: the molecule itself
Assay: crystal structure

B1: mouse RIG-I CARDs (residues 1-189), bacterially expressed (domain or fragment, UniProt Q6Q899 1-189, looked up)
chain: MTAEQRQNLQAFRDYIKKILDPTYILSYMSSWLEDEEVQYIQAEKNNKGPMEAASLFLQYLLKLQSEGWFQAFLDALYHAGYCGLCEAIESWDFQKIEKLEEHRLLLRRLEPEFKATVDPNDILSELSECLINQECEEIRQIRDTKGRMAGAEKMAECLIRSDKENWPKVLQLALEKDNSKFSELWIVD
stoichiometry N: 4
